Blank lines part the entries; values can stand above or below the binder they belong to.
Legend:
[1] = target: T1, hCCR8 antigen on hCCR8-transfected 293T cells (human, UniProt P51685 1-355); assay: flow cytometry on hCCR8-transfected 293T cells, FITC anti-human IgG Fc, median fluorescence, 4-parameter fit
T1 construct: whole, on cells; also called human CCR8
Experimental: (§1) Serially diluted antibodies or bispecifics were then added, with a maximum final concentration of 1000 nM and 3-fold dilution using PBS buffer. After incubating on ice for 30 mins, the plates were washed two times with FACS buffer (PBS buffer with 0.5 mg/ml BSA, 0.02% tween) and incubated with FITC anti-human IgG antibody (Goat Anti Human (IgG Fc) secondary antibody FITC, Abcam #ab97224, 1:1000) on ice for 30 mins, followed by two times wash with FACS buffer. […] Data were analyzed with GraphPad Prism. Median fluorescent intensity was plotted versus antibody concentration and EC50 was calculated by fitting the curve with the function of log (agonist) vs. response—Variable slope (four parameters).

[2] = target: T2, hCD3 antigen on Jurkat clone E6-1 cells (human); assay: flow cytometry on Jurkat cells, FITC anti-human IgG Fc, median fluorescence, 4-parameter fit
T2 construct: whole, on cells; also called human CD3; hCD3 (Jurkat cell)
T2 sequence (P07766 23-207, chain 1 of 4): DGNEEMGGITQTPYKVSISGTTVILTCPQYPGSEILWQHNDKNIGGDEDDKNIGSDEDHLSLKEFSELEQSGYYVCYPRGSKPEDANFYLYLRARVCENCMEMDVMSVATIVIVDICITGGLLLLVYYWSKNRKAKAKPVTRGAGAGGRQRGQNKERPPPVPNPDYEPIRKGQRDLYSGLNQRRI
T2 sequence (P09693 23-182, chain 2 of 4, further chain): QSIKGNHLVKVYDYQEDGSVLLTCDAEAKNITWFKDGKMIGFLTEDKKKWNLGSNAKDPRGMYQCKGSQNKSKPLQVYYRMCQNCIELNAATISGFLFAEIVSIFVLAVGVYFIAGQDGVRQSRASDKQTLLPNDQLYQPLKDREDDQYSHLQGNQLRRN
T2 sequence (P04234 22-171, chain 3 of 4, further chain): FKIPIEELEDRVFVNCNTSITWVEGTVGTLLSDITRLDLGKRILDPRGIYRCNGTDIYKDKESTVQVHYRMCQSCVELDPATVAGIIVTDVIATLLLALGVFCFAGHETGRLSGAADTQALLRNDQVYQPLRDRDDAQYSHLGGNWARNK
T2 sequence (P20963 22-164, chain 4 of 4, further chain): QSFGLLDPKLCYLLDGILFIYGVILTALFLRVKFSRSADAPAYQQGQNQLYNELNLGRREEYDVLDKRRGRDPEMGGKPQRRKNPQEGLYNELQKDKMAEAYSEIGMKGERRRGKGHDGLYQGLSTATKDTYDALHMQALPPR
Experimental: as §1

T1 sequence (P51685 whole entry): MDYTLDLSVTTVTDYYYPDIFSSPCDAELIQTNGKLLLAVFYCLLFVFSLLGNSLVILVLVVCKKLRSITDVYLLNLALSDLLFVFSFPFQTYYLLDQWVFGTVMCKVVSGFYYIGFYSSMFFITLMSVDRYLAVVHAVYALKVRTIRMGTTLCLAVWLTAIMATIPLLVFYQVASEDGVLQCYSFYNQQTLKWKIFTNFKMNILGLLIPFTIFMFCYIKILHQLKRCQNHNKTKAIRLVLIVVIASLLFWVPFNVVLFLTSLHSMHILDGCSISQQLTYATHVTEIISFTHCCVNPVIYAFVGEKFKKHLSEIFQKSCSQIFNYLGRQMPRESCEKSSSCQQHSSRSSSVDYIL

- EC50 [1]: 0.34 nM
B1: ABC138 (anti-hCCR8 parental antibody) (antibody, human IgG1, kappa, V domains shown)
VH: EVQLVESGGGLVQPGGSLRLSCAASGFPFNTFAMNWVRQAPGKGLEWLARIRSKSNNYATYYADSVKDRFTISRDNAKRSLYLQMNSLRAEDTAVYYCVRGKENNYGYAMDYWGQGTTVTVSS
VL: DIVMTQSPLSLPVTPGEPASISCRSSKSLLHSNANTYLYWFLQKPGQSPQLLIYRMSNLASGVPDRFSGSGSGTDFTLKISRVEAEDVGVYYCMQHVEYPFTFGGGTKLEIKR

- EC50 [1]: 2.9 nM
- EC50 [2]: 2.57 nM
B2: ABC752 (ABC752_hCCR8/hCD3_673, anti-hCCR8 x anti-hCD3 BsAb in ABC673 format) (bispecific antibody, human IgG1, kappa, N297A)
heavy 1: EVQLVESGGGLVQPGGSLRLSCAASGFPFNTFAMNWVRQAPGKGLEWLARIRSKSNNYATYYADSVKDRFTISRDNAKRSLYLQMNSLRAEDTAVYYCVRGKENNYGYAMDYWGQGTTVTVSSASTKGQVKPEAWLSHCPSPGPGHLQLVCHVSGFYPKPVWVMWMRGEQEQQGTQRSEILPSADGTWYLRATLEVAAGEAADLSCRVKHSSLEGQDIVLYWEGSDKTHTCPPCPAPELLGGPSVFLFPPKPKDTLMISRTPEVTCVVVDVSHEDPEVKFNWYVDGVEVHNAKTKPREEQYASTYRVVSVLTVLHQDWLNGKEYKCKVSNKALPAPIEKTISKAKGQPREPQVCTLPPSREEMTKNQVSLSCAVKGFYPSDIAVEWESNGQPENNYKTTPPVLDSDGSFFLVSKLTVDKSRWQQGNVFSCSVMHEALHNHYTQKSLSLSPGK
light 1: not shown
heavy 2: not shown
light 2: not shown

- EC50 [1]: 2.14 nM
- EC50 [2]: 2.09 nM
B3: ABC753 (ABC753_hCCR8/hCD3_675, anti-hCCR8 x anti-hCD3 BsAb in ABC675 format) (bispecific antibody, human IgG1, kappa, N297A)
heavy 1: EVQLVESGGGLVQPGGSLRLSCAASGFPFNTFAMNWVRQAPGKGLEWLARIRSKSNNYATYYADSVKDRFTISRDNAKRSLYLQMNSLRAEDTAVYYCVRGKENNYGYAMDYWGQGTTVTVSSASTKGQVKPEAWLSSCPSPGPGRLQLVCHVSGFYPKPVWVMWMRGEQEQQGTQLSEILPNANWTWYLRATLDVADGEAAGLSCRVKHSSLEGQDIILYWRGSGDKTHTCPPCPAPELLGGPSVFLFPPKPKDTLMISRTPEVTCVVVDVSHEDPEVKFNWYVDGVEVHNAKTKPREEQYASTYRVVSVLTVLHQDWLNGKEYKCKVSNKALPAPIEKTISKAKGQPREPQVCTLPPSREEMTKNQVSLSCAVKGFYPSDIAVEWESNGQPENNYKTTPPVLDSDGSFFLVSKLTVDKSRWQQGNVFSCSVMHEALHNHYTQKSLSLSPGK
light 1: not shown
heavy 2: not shown
light 2: not shown
